Laboratory results: article PMC3664666 (Science signaling, 2012)

T1: phosphorylated Mt-MviN KHD 681-963 (M. tuberculosis, UniProt P9WJK2 681-963, phosphothreonine at 947)
T1 sequence: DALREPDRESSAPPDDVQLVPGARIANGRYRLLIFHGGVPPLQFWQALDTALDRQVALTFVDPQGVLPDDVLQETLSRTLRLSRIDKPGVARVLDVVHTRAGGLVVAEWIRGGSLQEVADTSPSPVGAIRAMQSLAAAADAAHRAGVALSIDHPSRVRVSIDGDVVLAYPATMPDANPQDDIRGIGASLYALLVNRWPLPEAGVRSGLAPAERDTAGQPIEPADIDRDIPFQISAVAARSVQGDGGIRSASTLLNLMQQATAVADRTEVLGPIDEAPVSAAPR

B1: FhaA FHA domain Q461A (domain or fragment)
chain: PQGGGYAEPAGRDYDYGQSGAPDYGQPAPGGYSGYGQGGYGSAGTSVTLQLDDGSGRTYQLREGSNIIGRGADAQFRLPDTGVSRRHLEIRWDGQVALLADLNSTNGTTVNNAPVQEWQLADGDVIRLGHSEIIVR
B2: FhaA FHA domain R459A (domain or fragment)
chain: PQGGGYAEPAGRDYDYGQSGAPDYGQPAPGGYSGYGQGGYGSAGTSVTLQLDDGSGRTYQLREGSNIIGAGQDAQFRLPDTGVSRRHLEIRWDGQVALLADLNSTNGTTVNNAPVQEWQLADGDVIRLGHSEIIVR
B3: FhaA FHA domain R474A (domain or fragment)
chain: PQGGGYAEPAGRDYDYGQSGAPDYGQPAPGGYSGYGQGGYGSAGTSVTLQLDDGSGRTYQLREGSNIIGRGQDAQFRLPDTGVSARHLEIRWDGQVALLADLNSTNGTTVNNAPVQEWQLADGDVIRLGHSEIIVR

Target: T1, phosphorylated Mt-MviN KHD 681-963
Assay: ITC

Binder | binding result | fold reduction of the binding affinity against the wild type [fold]
B1 | binds | –
B2 | – | > 170
B3 | – | 41
